The values below are quoted from earlier work in paper PMC8355678.

One series has as its target CXCR3 (Homo sapiens) (UniProt P49682).
Series [1] addresses CCL2 receptor on monocytes (Homo sapiens) (UniProt P41597).
Sequence of UniProt P41597 (P41597 whole entry): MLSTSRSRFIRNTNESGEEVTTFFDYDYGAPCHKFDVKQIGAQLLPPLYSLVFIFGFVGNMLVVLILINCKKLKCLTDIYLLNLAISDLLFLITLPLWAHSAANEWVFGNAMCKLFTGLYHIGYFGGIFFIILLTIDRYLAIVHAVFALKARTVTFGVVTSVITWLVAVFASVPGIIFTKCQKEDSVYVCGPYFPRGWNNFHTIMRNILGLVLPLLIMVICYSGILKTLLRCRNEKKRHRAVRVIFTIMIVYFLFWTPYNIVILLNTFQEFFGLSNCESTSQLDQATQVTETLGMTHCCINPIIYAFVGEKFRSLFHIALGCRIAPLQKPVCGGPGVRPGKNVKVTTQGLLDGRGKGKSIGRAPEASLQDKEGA

Sequence of UniProt P49682 (P49682 whole entry): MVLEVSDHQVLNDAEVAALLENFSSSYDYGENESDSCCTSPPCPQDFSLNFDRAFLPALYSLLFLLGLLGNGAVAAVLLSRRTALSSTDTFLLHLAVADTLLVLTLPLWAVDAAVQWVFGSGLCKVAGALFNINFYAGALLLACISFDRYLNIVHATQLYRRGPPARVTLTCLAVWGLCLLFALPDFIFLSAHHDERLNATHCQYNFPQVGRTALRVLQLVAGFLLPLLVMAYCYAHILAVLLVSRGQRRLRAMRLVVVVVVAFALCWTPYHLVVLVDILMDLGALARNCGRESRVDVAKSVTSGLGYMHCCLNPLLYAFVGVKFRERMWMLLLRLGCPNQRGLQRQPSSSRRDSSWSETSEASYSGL
Sequence of CCL2 (P13500 24-99): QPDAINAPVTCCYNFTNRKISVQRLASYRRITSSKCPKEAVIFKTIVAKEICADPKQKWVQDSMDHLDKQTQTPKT

A word on the Kd: it is the equilibrium constant for the complex coming apart. As for CXCL10 (from UniProt P02778), the Kd in the series with CXCR3 (Homo sapiens) is 0.25 nM.
For CCL2 (from UniProt P13500), the Kd in series [1] was 0.77 nM.
